In assay [1] the target is T1, 6xHis-MtFtsZ (Mycobacterium tuberculosis FtsZ) (Mycobacterium tuberculosis, UniProt P9WN95 1-379).
T1 construct: also called MtZ
T1 sequence: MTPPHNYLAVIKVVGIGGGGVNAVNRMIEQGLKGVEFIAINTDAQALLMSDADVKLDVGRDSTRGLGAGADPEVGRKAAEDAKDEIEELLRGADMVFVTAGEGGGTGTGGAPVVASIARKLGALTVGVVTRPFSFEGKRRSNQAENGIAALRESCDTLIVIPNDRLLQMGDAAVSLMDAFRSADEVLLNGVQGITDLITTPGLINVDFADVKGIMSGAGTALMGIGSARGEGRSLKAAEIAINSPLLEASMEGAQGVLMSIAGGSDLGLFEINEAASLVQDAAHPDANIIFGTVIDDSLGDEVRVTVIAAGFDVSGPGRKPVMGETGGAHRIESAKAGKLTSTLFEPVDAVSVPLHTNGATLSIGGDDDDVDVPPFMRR
The assay can be described thus: pull-down. Particulars: both partners purified.

The target of assay [2] is T2, 6xHis-EcFtsZ (FtsZ of E. coli) (E. coli, UniProt P0A9A6 1-383).
T2 sequence (looked up): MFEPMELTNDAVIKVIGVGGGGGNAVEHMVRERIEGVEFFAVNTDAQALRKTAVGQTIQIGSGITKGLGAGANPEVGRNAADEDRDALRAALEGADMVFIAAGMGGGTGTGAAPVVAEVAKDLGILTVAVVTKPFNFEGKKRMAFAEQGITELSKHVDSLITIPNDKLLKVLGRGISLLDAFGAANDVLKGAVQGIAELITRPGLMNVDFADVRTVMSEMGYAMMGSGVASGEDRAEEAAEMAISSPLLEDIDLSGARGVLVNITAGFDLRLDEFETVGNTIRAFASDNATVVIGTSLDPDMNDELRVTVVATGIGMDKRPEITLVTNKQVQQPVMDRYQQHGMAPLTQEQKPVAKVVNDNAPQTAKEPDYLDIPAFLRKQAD
Briefly: pull-down. Conditions: both partners purified.

B1: GST-MtNDK (Mycobacterium tuberculosis nucleoside diphosphate kinase) (enzyme)
chain: MTERTLVLIKPDGIERQLIGEIISRIERKGLTIAALQLRTVSAELASQHYAEHEGKPFFGSLLEFITSGPVVAAIVEGTRAIAAVRQLAGGTDPVQAAAPGTIRGDFALETQFNLVHGSDSAESAQREIALWFPGA
notes: also called GST-NDK; MtNDK-Wt
B1: the binding result in assay [1] and in assay [2] was “binds” each time.
